Reference: paper PMC7805551

Molecular target: chicken MHF complex (MHF1/MHF2 heterotetramer) (chicken) (UniProt E1BSW7)
Test: native gel or EMSA; 2 mg/ml FANCM–MHF or MHF mixed 1:1 with 10 mM Tris–HCl pH 8 or 10–60% MPD, 20°C for 60 min; 6% polyacrylamide TBE gel, 0.5x TBE, 4°C; bands cut out and analysed by SDS–PAGE; at 30% MPD a smeared band at the position of MHF

percent of MHF without FANCM: 3%
Substance: chicken FANCM (MHF interaction region, amino acids 660–804) (from UniProt A0A1D5PRR9 660-804) (domain or fragment)
